The values that follow come from US20220380475A1 (SORRISO PHARMACEUTICALS, published 2022).

Read-outs that look alike come from different tables or passages of the source.

Assay [1] concerns the target T1, recombinant soluble human IL-6R (human, UniProt P08887 20-365).
T1 construct: also called sIL-6R; shIL-6R
T1 sequence: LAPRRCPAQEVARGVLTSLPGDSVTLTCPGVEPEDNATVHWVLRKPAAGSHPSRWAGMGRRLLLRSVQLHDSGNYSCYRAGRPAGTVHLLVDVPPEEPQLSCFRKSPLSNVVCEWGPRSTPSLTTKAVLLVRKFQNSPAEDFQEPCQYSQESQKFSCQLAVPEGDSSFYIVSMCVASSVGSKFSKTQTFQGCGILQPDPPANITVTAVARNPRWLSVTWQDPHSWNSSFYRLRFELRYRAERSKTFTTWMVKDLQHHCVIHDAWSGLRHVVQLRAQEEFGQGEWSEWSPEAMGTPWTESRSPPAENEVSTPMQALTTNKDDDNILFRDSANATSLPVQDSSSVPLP
In words: gp130 ELISA (competition), second assay; reference 7F6. Here is the method: (§1) Briefly, Maxisorp 96-well plates were coated overnight with 50 μl/well 0.5 μg/ml gp130 then blocked. ICVDs were serially diluted and mixed 1:1 with 100 ng/ml recombinant human IL-6 then 1:1 with 40 ng/ml recombinant human sIL-6R, and incubated for 1 hour to allow binding before adding to the gp130-coated plates. Bound IL-6R was detected with 50 μl/well 0.250 μg/ml BAF227 and then 50 μl/well 1/1000 diluted Extravidin-HRP and the level of neutralisation by the ICVD of IL-6R binding to IL-6/gp130 was determined.
(§2) A separate assay was performed on 21E6 and 7F6 using the same protocol as above with the exception that the ICVD/IL-6R/IL-6 where only incubated with shaking for 10 min before being added to the assay plates.
For orientation: An ELISA detects its analyte on a solid surface through an enzyme-linked reagent.

In assay [2] the target is T2, membrane-bound human IL-6R on TF-1 cells (human, UniProt P08887 20-468).
T2 sequence: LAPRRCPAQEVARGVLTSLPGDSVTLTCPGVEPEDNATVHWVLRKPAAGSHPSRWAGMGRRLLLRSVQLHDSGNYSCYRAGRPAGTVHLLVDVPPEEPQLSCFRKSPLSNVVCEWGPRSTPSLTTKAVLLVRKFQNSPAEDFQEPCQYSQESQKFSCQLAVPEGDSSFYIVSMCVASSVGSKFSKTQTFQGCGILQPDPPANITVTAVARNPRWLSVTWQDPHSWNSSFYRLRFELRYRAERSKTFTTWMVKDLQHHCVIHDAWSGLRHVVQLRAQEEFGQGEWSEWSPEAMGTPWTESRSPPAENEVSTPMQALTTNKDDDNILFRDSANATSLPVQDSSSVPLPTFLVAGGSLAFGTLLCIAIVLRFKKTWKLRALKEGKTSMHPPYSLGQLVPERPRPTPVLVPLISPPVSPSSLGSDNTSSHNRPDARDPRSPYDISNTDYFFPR
In words: cell-based or functional assay.

In assay [3] the target is T1, recombinant soluble human IL-6R. As to the kind of experiment: gp130 ELISA (competition), second assay, 10 min pre-incubation; 20 ng/mL IL6R, 100 ng/mL IL6. As for the experimental part: as §1, §2
For assay [4] the target is unchanged. In words: standard gp130 ELISA (competition).
Assay [5] shares this target. As to the kind of experiment: Biacore (SPR): ICVD fixed to the sensor, soluble human IL-6R flowed over. The source says: The binding kinetics of the trans-selective ID-123V (E. coli produced version of ID-142V) and the cis/trans potent ID-112V (E. coli produced version of ID-144V, but for ID-112V lacking N82Y relative to ID-144V) were compared against tocilizumab in a Biacore study. The ICVDs were fixed to the Biacore sensor plate and soluble human IL-6R was flowed over the plate to detect binding.
A general note: Surface plasmon resonance follows binding to a sensor surface in real time, without labels.

Assay [6] has the same target. As to the kind of experiment: standard gp130 ELISA (competition), Experiment 1; 10 ng/mL IL-6R, 50 ng/mL IL-6. As for the experimental part: The inhibitory potency and efficacy (maximal inhibition) of the E. coli-produced 5G9 derivatives were confirmed in vitro in the gp130 ELISA, TF-1 cell and M1 cell functional assays measuring responses mediated via human IL-6R. The gp130 assays follow the standard protocol with a final assay concentration of 10 ng/mL IL-6R and 50 ng/mL IL-6.

For assay [7], the target named is T2, membrane-bound human IL-6R on TF-1 cells. As to the kind of experiment: cell-based or functional assay. The source holds these as a separate data set.
Assay [8] deals with T1, recombinant soluble human IL-6R. In words: cell-based or functional assay.
The target in assay [9] is T2, membrane-bound human IL-6R on TF-1 cells. As to the kind of experiment: cell-based or functional assay. This is another data set of the same source.
Assay [10] concerns the target membrane-bound human IL-6R on TF-1 cells (human) (UniProt P08887). In words: cell-based or functional assay.
The target of assay [11] is recombinant soluble human IL-6R (human) (UniProt P08887). In words: gp130 ELISA (competition): inhibition of human sIL-6R/IL-6 complex binding to coated gp130; 20 ng/mL IL6R, 100 ng/mL IL6.
For assay [12] the target is unchanged. As to the kind of experiment: standard gp130 ELISA (competition), Experiment 2; 10 ng/mL IL-6R, 50 ng/mL IL-6.
For assay [13] the target is unchanged. In words: Biacore (SPR): binder fixed to the sensor, soluble human IL-6R flowed over.
Assay [14] shares this target. As to the kind of experiment: cell-based or functional assay.
The target of assay [15] is membrane-bound human IL-6R on TF-1 cells (human) (UniProt P08887). In words: cell-based or functional assay. This is another data set of the same source.

B1: 21E6 (VHH)
VHH: EVQLVESGGGLVLAGGSTRLTCLASGSISSINVIGWYRQAPGKQRELVAMIGRGEGANYGDFAKGRFTISRDNSKNTVYLQMNSLKPEDTAVYYCYADYEDRDSPLNGSWGQGTQVTVSS
notes: Family-expansion clone related to 7F6 (Q13L and F106L); Expressed from a phagemid vector and purified
Turning to B1, the “fold less potent than 7F6” value in assay [1] is about 2 fold. The “IC50 in TF1 assay (separate assay, raised background)” value in [2] was found to be 11 nM. Also, the IC50 – broadly, the concentration that gives 50% inhibition – in [3] turned out to be 0.3 nM.

B2: ID-75V (VHH)
VHH: DVQLVESGGGLVQAGGSTRLTCKASGSISNINSINVMAWYRQAPGKQRELVAIIGKGGGTNYADFVKGRFTISRDAAKNTVNLQMNSLKPEDTAVYYCYADYEDHDSPFNASWGQGTQVTVSS
notes: also called 5G9 + E1D, F29S, R105H
As to B2, the binding result in assay [4] is reported as “binds”.

B3: ID-112V (VHH)
VHH: EVQLVESGGGLVQAGGSTRLTCKASGSISNINSINVMAWYRQAPGKGRELVAIIGKGGGTNYADFVKGRFTISRDAAKNTVNLQMNSLRPEDTAVYYCYADYEDHDSPFNASWGQGTQVTVSS
notes: E. coli-produced cis/trans potent 5G9 derivative; also called 5G9 + F29S, Q47G, K89R, R105H; not shown: C-terminal FLAG-6xHis
B3: in assay [5], the dissociation constant (Kd) (in general, the free concentration of one partner at which half of the binding sites on the other are occupied at equilibrium, for simple one-to-one binding) was 0.04 nM. The EC50 (usually the midpoint of the concentration-response curve) in assay [6] amounted to 0.15 nM. Moreover, the “TF-1 cell assay EC50 (5 ng/ml IL-6)” value in assay [7] is 0.18 nM. The “M1 cellular assay EC50 (20 ng/ml IL-6R, 100 ng/ml IL-6)” value in assay [8] was 0.55 nM.

B4: ID-114V (VHH)
VHH: EVQLVESGGGLVQAGGSTRLTCKASGSISNINSINVMAWYRQAPGKQRELVAIIGKGGGTNYADFVKGRFTISRDAAKNTLYLQMNSLKPEDTAVYYCYADYEDHDSPFNASWGQGTQVTVSS
notes: E. coli-produced cis/trans potent 5G9 derivative; also called 5G9 + F29S, V81L, N82Y, R105H; not shown: C-terminal FLAG-6xHis
As to B4, the EC50 in [6] worked out at 0.138 nM. Further, the “TF-1 cell assay EC50 (5 ng/ml IL-6)” value in [9] amounted to 0.29 nM. Besides, the “M1 cellular assay EC50 (20 ng/ml IL-6R, 100 ng/ml IL-6)” value in assay [8] is 0.52 nM.

B5: tocilizumab (antibody, part only; not given: constant regions, V domains shown, not shown: another chain or arm of the molecule)
VH: QVQLQESGPGLVRPSQTLSLTCTVSGYSITSDHAWSWVRQPPGRGLEWIGYISYSGITTYNPSLKSRVTMLRDTSKNQFSLRLSSVTAADTAVYYCARSLARTTAMDYWGQGSLVTVSS
VL: DIQMTQSPSSLSASVGDRVTITCRASQDISSYLNWYQQKPGKAPKLLIYYTSRLHSGVPSRFSGSGSGTDFTFTISSLQPEDIATYYCQQGNTLPYTFGQGTKVEIK
Regarding B5, the values for the TF-1 cell assay EC50 (5 ng/ml IL-6) in assay [10] and in assay [15] were 1.12 nM and 0.69 nM, respectively. Also, in [11], the half-inhibitory concentration (IC50) is 0.97 nM. The half-maximal effective concentration (EC50) in [12] is 1.83 nM. For the same molecule, the Kd in [13] came out at 0.39 nM. For the same molecule, the M1 cellular assay EC50 (20 ng/ml IL-6R, 100 ng/ml IL-6) in assay [14] turned out to be 5.36 nM. The molecule further displayed a Potency in the TF-1 assay in assay [15] (scale: not given) of 0.69.
